The record followed here is paper PMC8489356.

Several values for one entry are separate records, joined by “and”; a condition that tells them apart may be missing. Identical values can stand only once.

In test [1] the target is His-tagged recombinant human prosaposin (PSAP) (human) (UniProt P07602). Kind of test: ELISA. (An ELISA detects its analyte on a solid surface through an enzyme-linked reagent.)
The target in test [2] is His-tagged recombinant human sortilin (human) (UniProt Q99523). In words: ELISA.
UniProt Q99523, sequence (Q99523 78-755): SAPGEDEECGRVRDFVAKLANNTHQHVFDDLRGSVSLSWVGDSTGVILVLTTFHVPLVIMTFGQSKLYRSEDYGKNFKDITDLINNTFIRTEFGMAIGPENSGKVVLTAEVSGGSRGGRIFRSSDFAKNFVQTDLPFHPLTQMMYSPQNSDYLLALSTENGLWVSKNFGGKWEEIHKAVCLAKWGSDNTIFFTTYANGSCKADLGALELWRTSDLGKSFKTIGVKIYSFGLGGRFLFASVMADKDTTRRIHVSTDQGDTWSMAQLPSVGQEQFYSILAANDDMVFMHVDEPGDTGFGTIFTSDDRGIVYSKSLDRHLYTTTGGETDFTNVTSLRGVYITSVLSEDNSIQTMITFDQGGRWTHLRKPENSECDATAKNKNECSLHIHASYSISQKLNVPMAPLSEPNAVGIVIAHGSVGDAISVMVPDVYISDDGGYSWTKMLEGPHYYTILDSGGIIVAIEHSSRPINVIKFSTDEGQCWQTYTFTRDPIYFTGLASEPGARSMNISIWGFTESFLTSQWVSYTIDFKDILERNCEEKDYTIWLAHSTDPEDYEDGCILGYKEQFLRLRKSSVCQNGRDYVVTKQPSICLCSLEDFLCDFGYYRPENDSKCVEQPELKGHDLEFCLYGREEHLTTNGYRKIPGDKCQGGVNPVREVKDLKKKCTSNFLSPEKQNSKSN

UniProt P07602, sequence (P07602 17-524): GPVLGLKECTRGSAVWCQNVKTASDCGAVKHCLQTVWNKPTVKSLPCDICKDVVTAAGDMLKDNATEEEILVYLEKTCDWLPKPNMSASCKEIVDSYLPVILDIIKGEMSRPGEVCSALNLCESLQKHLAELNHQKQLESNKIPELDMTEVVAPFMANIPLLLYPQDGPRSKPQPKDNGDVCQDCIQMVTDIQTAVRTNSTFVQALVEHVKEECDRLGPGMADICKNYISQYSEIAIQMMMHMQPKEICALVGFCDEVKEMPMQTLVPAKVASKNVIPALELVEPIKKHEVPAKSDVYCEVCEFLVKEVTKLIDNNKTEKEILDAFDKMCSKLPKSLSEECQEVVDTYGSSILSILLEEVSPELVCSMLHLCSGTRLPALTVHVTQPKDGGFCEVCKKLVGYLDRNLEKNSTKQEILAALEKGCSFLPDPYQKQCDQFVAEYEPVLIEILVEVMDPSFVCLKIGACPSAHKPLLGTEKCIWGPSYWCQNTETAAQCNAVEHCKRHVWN

A word on the EC50: it is the midpoint of the concentration-response curve. For the substance “Fc:PGRN (huPGRN fused to a normal Fc) (Fc fusion)”, the concentration giving a half-maximal response (EC50) is 1.14 nM and 3.9 nM in test [1]; 1.8 nM and 0.31 nM in test [2].

For “protein transport vehicle:PGRN (PTV:PGRN), expressed in Expi293 cells (Fc fusion)”, the EC50 was 1.74 nM and 5.1 nM in test [1]; 2.2 nM and 0.47 nM in test [2].
